According to PMC6351632:

Molecular target: Fasciola hepatica Sigma class glutathione transferase 1 (Fasciola hepatica)
Assay: crystal structure; FhGST-S1 with glutathione (holo/CGL and GSSG complexes), microbatch, 0.15 M KBr, 20% PEG 3350; space group P212121, two subunits forming a dimer related by a molecular dyad

For “Fasciola hepatica Sigma class glutathione transferase 1 (enzyme)”, the stoichiometry N was 2.
